The text below walks through data of patent US12099068B2, “Biomarkers for graft-versus-host disease” (Incyte Corporation, priority 2018, dated 2024).

B1: GDF-2 (protein, UniProt Q9UK05 320-429, looked up)
Growth/differentiation factor …: SAGAGSHCQKTSLRVNFEDIGWDSWIIAPKEYEAYECKGGCFFPLADDVTPTKHAIVQTLVHLKFPTKVGKACCVPTKLSPISVLYKDDMGVPTLKYHYEGMSVAECGCR
B2: TIGAR (protein, UniProt Q9NQ88 1-270, looked up)
Fructose-2,6-bisphosphatase …: MARFALTVVRHGETRFNKEKIIQGQGVDEPLSETGFKQAAAAGIFLNNVKFTHAFSSDLMRTKQTMHGILERSKFCKDMTVKYDSRLRERKYGVVEGKALSELRAMAKAAREECPVFTPPGGETLDQVKMRGIDFFEFLCQLILKEADQKEQFSQGSPSNCLETSLAEIFPLGKNHSSKVNSDSGIPGLAASVLVVSHGAYMRSLFDYFLTDLKCSLPATLSRSELMSVTPNTGMSLFIINFEEGREVKPTVQCICMNLQDHLNGLTETR
B3: MILR1 (protein, UniProt Q7Z6M3 20-343, looked up)
Allergin-1: RKAVLDCEAMKTNEFPSPCLDSKTKVVMKGQNVSMFCSHKNKSLQITYSLFRRKTHLGTQDGKGEPAIFNLSITEAHESGPYKCKAQVTSCSKYSRDFSFTIVDPVTSPVLNIMVIQTETDRHITLHCLSVNGSLPINYTFFENHVAISPAISKYDREPAEFNLTKKNPGEEEEYRCEAKNRLPNYATYSHPVTMPSTGGDSCPFCLKLLLPGLLLLLVVIILILAFWVLPKYKTRKAMRNNVPRDRGDTAMEVGIYANILEKQAKEESVPEVGSRPCVSTAQDEAKHSQELQYATPVFQEVAPREQEACDSYKSGYVYSELNF
B4: AGR2 (protein, UniProt O95994 21-175, looked up)
Anterior gradient protein 2 …: RDTTVKPGAKKDTKDSRPKLPQTLSRGWGDQLIWTQTYEEALYKSKTSNKPLMIIHHLDECPHSQALKKVFAENKEIQKLAEQFVLLNLVYETTDKHLSPDGQYVPRIMFVDPSLTVRADITGRYSNRLYAYEPADTALLLDNMKKALKLLKTEL
B5: FAM3C (protein, UniProt Q92520 25-227, looked up)
Protein FAM3C: QVFEIKMDASLGNLFARSALDTAARSTKPPRYKCGISKACPEKHFAFKMASGAANVVGPKICLEDNVLMSGVKNNVGRGINVALANGKTGEVLDTKYFDMWGGDVAPFIEFLKAIQDGTIVLMGTYDDGATKLNDEARRLIADLGSTSITNLGFRDNWVFCGGKGIKTKSPFEQHIKNNKDTNKYEGWPEVVEMEGCIPQKQD
B6: LAT2 (protein, UniProt Q9GZY6 1-243, looked up)
Linker for activation of …: MSSGTELLWPGAALLVLLGVAASLCVRCSRPGAKRSEKIYQQRSLREDQQSFTGSRTYSLVGQAWPGPLADMAPTRKDKLLQFYPSLEDPASSRYQNFSKGSRHGSEEAYIDPIAMEYYNWGRFSKPPEDDDANSYENVLICKQKTTETGAQQEGIGGLCRGDLSLSLALKTGPTSGLCPSASPEEDEESEDYQNSASIHQWRESRKVMGQLQREASPGPVGSPDEEDGEPDYVNGEVAATEA
B7: ERBB2IP (protein, UniProt Q96RT1 1-1412, looked up)
Erbin: MTTKRSLFVRLVPCRCLRGEEETVTTLDYSHCSLEQVPKEIFTFEKTLEELYLDANQIEELPKQLFNCQSLHKLSLPDNDLTTLPASIANLINLRELDVSKNGIQEFPENIKNCKVLTIVEASVNPISKLPDGFSQLLNLTQLYLNDAFLEFLPANFGRLTKLQILELRENQLKMLPKTMNRLTQLERLDLGSNEFTEVPEVLEQLSGLKEFWMDANRLTFIPGFIGSLKQLTYLDVSKNNIEMVEEGISTCENLQDLLLSSNSLQQLPETIGSLKNITTLKIDENQLMYLPDSIGGLISVEELDCSFNEVEALPSSIGQLTNLRTFAADHNYLQQLPPEIGSWKNITVLFLHSNKLETLPEEMGDMQKLKVINLSDNRLKNLPFSFTKLQQLTAMWLSDNQSKPLIPLQKETDSETQKMVLTNYMFPQQPRTEDVMFISDNESFNPSLWEEQRKQRAQVAFECDEDKDEREAPPREGNLKRYPTPYPDELKNMVKTVQTIVHRLKDEETNEDSGRDLKPHEDQQDINKDVGVKTSESTTTVKSKVDEREKYMIGNSVQKISEPEAEISPGSLPVTANMKASENLKHIVNHDDVFEESEELSSDEEMKMAEMRPPLIETSINQPKVVALSNNKKDDTKETDSLSDEVTHNSNQNNSNCSSPSRMSDSVSLNTDSSQDTSLCSPVKQTHIDINSKIRQEDENFNSLLQNGDILNSSTEEKFKAHDKKDFNLPEYDLNVEERLVLIEKSVDSTATADDTHKLDHINMNLNKLITNDTFQPEIMERSKTQDIVLGTSFLSINSKEETEHLENGNKYPNLESVNKVNGHSEETSQSPNRTEPHDSDCSVDLGISKSTEDLSPQKSGPVGSVVKSHSITNMEIGGLKIYDILSDNGPQQPSTTVKITSAVDGKNIVRSKSATLLYDQPLQVFTGSSSSSDLISGTKAIFKFDSNHNPEEPNIIRGPTSGPQSAPQIYGPPQYNIQYSSSAAVKDTLWHSKQNPQIDHASFPPQLLPRSESTENQSYAKHSANMNFSNHNNVRANTAYHLHQRLGPARHGEMWAISPNDRLIPAVTRSTIQRQSSVSSTASVNLGDPGSTRRAQIPEGDYLSYREFHSAGRTPPMMPGSQRPLSARTYSIDGPNASRPQSARPSINEIPERTMSVSDFNYSRTSPSKRPNARVGSEHSLLDPPGKSKVPRDWREQVLRHIEAKKLEKKHPQTSSSGDPCQDGIFISGQQNYSSATLSHKDVPPDSLMKMPLSNGQMGQPLRPQANYSQIHHPPQASVARHPSREQLIDYLMLKVAHQPPYTQPHCSPRQGHELAKQEIRVRVEKDPELGFSISGGVGGRGNPFRPDDDGIFVTRVQPEGPASKLLQPGDKIIQANGYSFINIEHGQAVSLLKTFQNTVELIIVREVSS
B8: NUB1 (protein, UniProt Q9Y5A7 1-615, looked up)
NEDD8 ultimate buster 1: MAQKKYLQAKLTQFLREDRIQLWKPPYTDENKKVGLALKDLAKQYSDRLECCENEVEKVIEEIRCKAIERGTGNDNYRTTGIATIEVFLPPRLKKDRKNLLETRLHITGRELRSKIAETFGLQENYIKIVINKKQLQLGKTLEEQGVAHNVKAMVLELKQSEEDARKNFQLEEEEQNEAKLKEKQIQRTKRGLEILAKRAAETVVDPEMTPYLDIANQTGRSIRIPPSERKALMLAMGYHEKGRAFLKRKEYGIALPCLLDADKYFCECCRELLDTVDNYAVLQLDIVWCYFRLEQLECLDDAEKKLNLAQKCFKNCYGENHQRLVHIKGNCGKEKVLFLRLYLLQGIRNYHSGNDVEAYEYLNKARQLFKELYIDPSKVDNLLQLGFTAQEARLGLRACDGNVDHAATHITNRREELAQIRKEEKEKKRRRLENIRFLKGMGYSTHAAQQVLHAASGNLDEALKILLSNPQMWWLNDSNPETDNRQESPSQENIDRLVYMGFDALVAEAALRVFRGNVQLAAQTLAHNGGSLPPELPLSPEDSLSPPATSPSDSAGTSSASTDEDMETEAVNEILEDIPEHEEDYLDSTLEDEEIIIAEYLSYVENRKSATKKN
B9: MIF (protein, UniProt P14174 2-115, looked up)
Macrophage migration …: PMFIVNTNVPRASVPDGFLSELTQQLAQATGKPPQYIAVHVVPDQLMAFGGSSEPCALCSLHSIGKIGGAQNRSYSKLLCGLLAERLRISPDRVYINYYDMNAANVGWNNSTFA
B10: KLK10 (protein, UniProt O43240 31-276, looked up)
Kallikrein-10: AEAALLPQNDTRLDPEAYGSPCARGSQPWQVSLFNGLSFHCAGVLVDQSWVLTAAHCGNKPLWARVGDDHLLLLQGEQLRRTTRSVVHPKYHQGSGPILPRRTDEHDLMLLKLARPVVLGPRVRALQLPYRCAQPGDQCQVAGWGTTAARRVKYNKGLTCSSITILSPKECEVFYPGVVTNNMICAGLDRGQDPCQSDSGGPLVCDETLQGILSWGVYPCGSAQHPAVYTQICKYMSWINKVIRSN
B11: STAMPB (protein, UniProt O95630 1-424, looked up)
STAM-binding protein: MSDHGDVSLPPEDRVRALSQLGSAVEVNEDIPPRRYFRSGVEIIRMASIYSEEGNIEHAFILYNKYITLFIEKLPKHRDYKSAVIPEKKDTVKKLKEIAFPKAEELKAELLKRYTKEYTEYNEEKKKEAEELARNMAIQQELEKEKQRVAQQKQQQLEQEQFHAFEEMIRNQELEKERLKIVQEFGKVDPGLGGPLVPDLEKPSLDVFPTLTVSSIQPSDCHTTVRPAKPPVVDRSLKPGALSNSESIPTIDGLRHVVVPGRLCPQFLQLASANTARGVETCGILCGKLMRNEFTITHVLIPKQSAGSDYCNTENEEELFLIQDQQGLITLGWIHTHPTQTAFLSSVDLHTHCSYQMMLPESVAIVCSPKFQETGFFKLTDHGLEEISSCRQKGFHPHSKDPPLFCSCSHVTVVDRAVTITDLR
B12: SNAP23 (protein, UniProt O00161 1-211, looked up)
Synaptosomal-associated …: MDNLSSEEIQQRAHQITDESLESTRRILGLAIESQDAGIKTITMLDEQKEQLNRIEEGLDQINKDMRETEKTLTELNKCCGLCVCPCNRTKNFESGKAYKTTWGDGGENSPCNVVSKQPGPVTNGQLQQPTTGAASGGYIKRITNDAREDEMEENLTQVGSILGNLKDMALNIGNEIDAQNPQIKRITDKADTNRDRIDIANARAKKLIDS

This experiment relates to plasma proteins. In words: Plasma proteins modulated between baseline and day 28 in responders (CR, VGPR, PR; n = 19), Example 6 (Table 13). Type of experiment: in vivo, human. Particulars: plasma protein (OLINK NPX); responders (CR, VGPR, PR; n = 19); itacitinib 200 mg or 300 mg QD with corticosteroids; day 28 vs baseline. In short, it runs like this: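 Longitudinal comparison, day 28 versus baseline, with steroid-naive (N=10) and steroid-refractory (N=18) patients combined. Proteins measured by OLINK proximity extension, log2 normalized protein expression. Differences tested by t tests, ANOVA, Pearson correlation, P<0.05 significant.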
Consider B1, for which the “Fold Change, Increased Expression from Baseline to Day 28” value (“Fold Change, Increased Expression” for short) is on record as 1.3656.

B2: the “Fold Change, Decreased Expression from Baseline to Day 28” value (“Fold Change, Decreased Expression” for short) is recorded as −1.3733.

As for B3, the “Fold Change, Decreased Expression” value is −1.3829.

For the molecule B4, the “Fold Change, Increased Expression” value came to 1.4472.

On to B5, for which the “Fold Change, Increased Expression” value was 1.3109.

Consider B6, for which the “Fold Change, Decreased Expression” value is reported as −1.7755.

Consider B7, for which the “Fold Change, Decreased Expression” value is recorded as −1.7337.

Turning to B8, the “Fold Change, Decreased Expression” value is −1.4966.

In the case of B9, the “Fold Change, Decreased Expression” value was −1.7486.

B10: the “Fold Change, Increased Expression” value is reported as 1.2102.

As to B11, the “Fold Change, Decreased Expression” value was −1.3721.

Consider B12, for which the “Fold Change, Decreased Expression” value is −1.5751.
